Our source for the MFI values is US20180222958A1 (ONCOMED PHARMACEUTICALS, published 2018).

Assay [1] concerns the target T1, membrane-bound extracellular domain of mouse LTβR (mLTβR-CD4TM-GFP) (mouse, UniProt P50284 31-223).
T1 construct: extracellular domain; also called mouse LTβR ecd, CD4TM and GFP; mLThR-GFP; not shown: CD4 transmembrane domain and GFP fused after the extracellular domain
As to the kind of experiment: flow cytometry on HEK 293T cells transiently transfected with mouse LTβR ecd-CD4TM-GFP (row 'mLTBR GFP'); '0.5 ug/ml' printed at the upper left of the figure; APC-conjugated Fc secondary. On the procedure:
(§1) To test the binding of the different c-terminal human lymphotoxin heterotrimer constructs to human and mouse LTβR, HEK 293T cells were transiently transfected with cDNA expression vectors encoding cDNA for human or mouse LTβR ecd, CD4TM and GFP. Cells were then incubated with the various human lymphotoxin constructs 363F2, 363F3, or 363F4, washed and stained with APC-conjugated Fc secondary antibody. Mouse (deglycosylated) IgG1 Fc-mouse lymphotoxin-αββ heterotrimer fusion protein 363F1 was also tested. Binding of the lymphotoxin constructs was then assessed by flow cytometry using a Canto II FACS instrument (BD Biosciences) and analyzed using FlowJo software.

The target in assay [2] is T2, human LTβR ecd, CD4TM and GFP (human, UniProt P36941 31-227).
T2 construct: extracellular domain; also called hLTβR; hLThR-GFP; not shown: CD4 transmembrane domain and GFP fused after the extracellular domain
Briefly: flow cytometry on HEK 293T cells transiently transfected with human LTβR ecd-CD4TM-GFP (row 'hLTBR GFP'); '0.5 ug/ml' printed at the upper left of the figure; APC-conjugated Fc secondary. How it is done:
as §1
(A flow cytometer gives signals particle by particle.)

T2 sequence (P36941 31-227): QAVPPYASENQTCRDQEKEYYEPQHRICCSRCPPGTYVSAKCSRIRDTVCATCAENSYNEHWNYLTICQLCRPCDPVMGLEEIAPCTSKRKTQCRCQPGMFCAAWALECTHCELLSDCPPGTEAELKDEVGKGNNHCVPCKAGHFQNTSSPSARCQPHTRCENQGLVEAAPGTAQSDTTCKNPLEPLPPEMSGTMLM
T1 sequence (P50284 31-223): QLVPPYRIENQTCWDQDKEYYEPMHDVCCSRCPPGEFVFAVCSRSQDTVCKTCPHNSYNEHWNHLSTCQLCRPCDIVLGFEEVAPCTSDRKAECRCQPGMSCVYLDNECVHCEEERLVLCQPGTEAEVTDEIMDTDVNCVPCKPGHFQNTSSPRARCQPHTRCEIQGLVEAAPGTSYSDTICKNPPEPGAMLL

B1: 363F1 mFc-mLTαββ (Fc fusion)
chain: GCKPCICTVPEVSSVFIFPPKPKDVLTITLTPKVTCVVVDISKDDPEVQFSWFVDDVEVHTAQTQPREEQFASTFRSVSELPIMHQDWLNGKEFKCRVNSAAFPAPIEKTISKTKGRPKAPQVYTIPPPKEQMAKDKVSLTCMITDFFPEDITVEWQWNGQPAENYKNTQPIMDTDGSYFVYSKLNVQKSNWEAGNTFTCSVLHEGLHNHHTEKSLSHSPGKKPAAHLVGYPSKQNSLLWRASTDRAFLRHGFSLSNNSLLIPTSGLYFVYSQVVFSGESCSPRAIPTPIYLAHEVQLFSSQYPFHVPLLSAQKSVYPGLQGPWVRSMYQGAVFLLSKGDQLSTHTDGISHLHFSPSSVFFGAFALLNPELPAAHLIGAWMSGQGLSWEASQEEAFLRSGAQFSPTHGLALPQDGVYYLYCHVGYRGRTPPAGRSRARSLTLRSALYRAGGAYGRGSPELLLEGAETVTPVVDPIGYGSLWYTSVGFGGLAQLRSGERVYVNISHPDMVDYRRGKTFFGAVMVGLNPELPAAHLIGAWMSGQGLSWEASQEEAFLRSGAQFSPTHGLALPQDGVYYLYCHVGYRGRTPPAGRSRARSLTLRSALYRAGGAYGRGSPELLLEGAETVTPVVDPIGYGSLWYTSVGFGGLAQLRSGERVYVNISHPDMVDYRRGKTFFGAVMVG
notes: also called mouse LTαββ; mouse (deglycosylated) IgG1 Fc-mouse lymphotoxin-αββ heterotrimer fusion protein
B1: the values for the MFI in assay [1] and in assay [2] were 4740 and 2260, respectively.
